Residue numbers refer to the chain shown, from its start.
B1: ΔB7-H6_S3#14-SEED-PGLALA (bispecific antibody, part only; not given: SEED Fc chains and hu225 Fab, part only)
chain, part: DLKVEMMAGGTQITPLNDNVTIFCNIFYSQPLNITTMGITWFWKSLTFDKEVKVFEFYGDHQEAFRPGAIVSPWRLKSGDASLRLPGIQLEEAGEYRCEVVVTPYKAQGTVQLEVVASPAS
B2: ΔB7-H6_wt-SEED-PGLALA (bispecific antibody, part only; not given: SEED Fc chains and hu225 Fab, part only)
chain, part: B1 chain, part with T36S, Y58F, Y105L
B3: ΔB7-H6_S3#24-SEED-PGLALA (bispecific antibody, part only; not given: SEED Fc chains and hu225 Fab, part only)
chain, part: B1 chain, part with T36I
B4: ΔB7-H6_S2#10-SEED-PGLALA (bispecific antibody, part only; not given: SEED Fc chains and hu225 EGFR Fab, part only)
chain, part: B1 chain, part with T36L, Y58W, R75G, Y105L
B5: ΔB7-H6_S3#27-SEED-PGLALA (bispecific antibody, part only; not given: SEED Fc chains and hu225 EGFR Fab, part only)
chain, part: B1 chain, part with Y58W, V101I
B6: ΔB7-H6_S3#18-SEED-PGLALA (bispecific antibody, part only; not given: SEED Fc chains and hu225 Fab, part only)
chain, part: B1 chain, part with T36Y, Y58W
B7: ΔB7-H6_S3#25-SEED-PGLALA (bispecific antibody, part only; not given: SEED Fc chains and hu225 Fab, part only)
chain, part: B1 chain, part with T36W
B8: ΔB7-H6_S3#15-SEED-PGLALA (bispecific antibody, part only; not given: SEED Fc chains and hu225 Fab, part only)
chain, part: B1 chain, part with T36I, Y58W
B9: ΔB7-H6_S2#11-SEED-PGLALA (bispecific antibody, part only; not given: SEED Fc chains and hu225 Fab, part only)
chain, part: B1 chain, part with Y58W, G59Q, Y105L
B10: ΔB7-H6_S2#13-SEED-PGLALA (bispecific antibody, part only; not given: SEED Fc chains and hu225 Fab, part only)
chain, part: B1 chain, part with T36S, Y58W
B11: ΔB7-H6_S3#16-SEED-PGLALA (bispecific antibody, part only; not given: SEED Fc chains and hu225 Fab, part only)
chain, part: B1 chain, part with T36L
B12: ΔB7-H6_S3#31-SEED-PGLALA (bispecific antibody, part only; not given: SEED Fc chains and hu225 EGFR Fab, part only)
chain, part: B1 chain, part with T36I, Y105L
B13: ΔB7-H6_S2#14-SEED-PGLALA (bispecific antibody, part only; not given: SEED Fc chains and hu225 Fab, part only)
chain, part: B1 chain, part with Y58F
B14: ΔB7-H6_S2#5-SEED-PGLALA (bispecific antibody, part only; not given: SEED Fc chains and hu225 Fab, part only)
chain, part: B1 chain, part with T36S, F42L, Y58W, V101F
B15: ΔB7-H6_S2#4-SEED-PGLALA (bispecific antibody, part only; not given: SEED Fc chains and hu225 Fab, part only)
chain, part: B1 chain, part with T36H, G59A, F65I
B16: ΔB7-H6_S3#2-SEED-PGLALA (bispecific antibody, part only; not given: SEED Fc chains and hu225 EGFR Fab, part only)
chain, part: B1 chain, part with T36W, Y58W
B17: ΔB7-H6_S2#6-SEED-PGLALA (bispecific antibody, part only; not given: SEED Fc chains and hu225 EGFR Fab, part only)
chain, part: B1 chain, part with S29F, T36E, Y58F, V101I, Y105L
B18: ΔB7-H6_S3#4-SEED-PGLALA (bispecific antibody, part only; not given: SEED Fc chains and hu225 Fab, part only)
chain, part: B1 chain, part with T36I, Y58W, Y105L
B19: ΔB7-H6_S3#20-SEED-PGLALA (bispecific antibody, part only; not given: SEED Fc chains and hu225 Fab, part only)
chain, part: B1 chain, part with T36H, Y58W, V101F, Y105L
B20: ΔB7-H6_S2#12-SEED-PGLALA (bispecific antibody, part only; not given: SEED Fc chains and hu225 Fab, part only)
chain, part: B1 chain, part with T36H, F42L, Y105L
B21: ΔB7-H6_S3#32-SEED-PGLALA (bispecific antibody, part only; not given: SEED Fc chains and hu225 EGFR Fab, part only)
chain, part: B1 chain, part with T36E, Y58W, Y105V

target: NKp30 on human NK cells (human) (UniProt O14931); assay: cell-based or functional assay
Sequence (O14931 19-201): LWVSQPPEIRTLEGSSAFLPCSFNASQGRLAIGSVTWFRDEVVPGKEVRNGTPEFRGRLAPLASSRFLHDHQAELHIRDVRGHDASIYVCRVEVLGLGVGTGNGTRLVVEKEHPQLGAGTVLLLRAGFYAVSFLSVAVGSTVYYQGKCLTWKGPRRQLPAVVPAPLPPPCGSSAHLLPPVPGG

Row | Binder | A431 EC50 with PBMC (pM) | A549 EC50 with PBMC (pM) | EC50 (pM), A431 lysis with PBMC [pM] | EC50 improvement compared to ΔB7-H6 wt [fold] | A431 EC50 with NK cells (pM) | EC50 of A431 lysis with PBMC, initial screening [nM] | A549 EC50 with NK cells (pM) | EC50 of tumor cell lysis, initial screening [nM] | improved potency compared to wild-type ΔB7-H6, initial screening [fold] | enhanced potency compared to the wild-type ΔB7-H6 immunoligand, initial screening [fold]
1 | B1 | 150 | 556 | 21 | 41 | – | – | – | – | – | –
2 | B2 | 1840 | – | 868 | 1 | 245 | 1.1 | – | – | – | –
3 | B3 | 39.7 | 108 | 9.3 | 93 | 3.55 | – | 35.2 | – | – | –
4 | B4 | – | – | 122 | 7 | – | – | – | – | – | –
5 | B5 | 60.2 | 356 | 19.2 | 45 | – | – | – | 0.0276 | 41 | –
6 | B6 | 51.1 | 132 | 19.8 | 44 | 4.31 | – | 42.5 | – | – | –
7 | B7 | 37.8 | 135 | 9.9 | 88 | 4.25 | – | 34.6 | – | – | 187
8 | B8 | 29.9 | 133 | 8.7 | 100 | 2.8 | – | 31.3 | – | – | –
9 | B9 | – | – | 172 | 5 | – | – | – | – | – | –
10 | B10 | – | – | 171 | 5 | – | – | – | – | – | –
11 | B11 | 87.3 | 206 | 29.1 | 30 | – | – | – | – | – | –
12 | B12 | 34.8 | 224 | 17.5 | 50 | – | – | – | – | – | –
13 | B13 | – | – | 158 | 5 | – | – | – | – | – | –

same assay, conditions: not given

Row | Binder | half-maximal killing activity, initial screening [pM] | increase in potency with purified NK cells on A431 compared to wild-type [fold]
14 | B7 | 6 | –
15 | B8 | – | 87
16 | B12 | 25.1 | –

target: human NKp30 (human) (UniProt O14931); assay: BLI, ratio to ΔB7-H6_wt
Sequence (O14931 19-135 limits assumed): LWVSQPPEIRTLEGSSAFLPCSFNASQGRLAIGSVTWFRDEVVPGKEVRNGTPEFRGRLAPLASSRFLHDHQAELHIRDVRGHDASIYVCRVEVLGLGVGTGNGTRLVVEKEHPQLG

Row | Binder | KD improvement compared to ΔB7-H6 wt [fold] | x-fold KD improvement [fold] | x-fold Koff improvement [fold]
17 | B1 | 11.9 | 11.9 | 5.2
18 | B2 | 1 | – | –
19 | B3 | 27.4 | 27.5 | 16.1
20 | B4 | 2.2 | 2.2 | 1.5
21 | B5 | 4.9 | 4.9 | 3
22 | B6 | 45.1 | 45.1 | 12.4
23 | B7 | 6.3 | 6.3 | 3.5
24 | B8 | 33 | 33 | 16.6
25 | B9 | 1.7 | 1.7 | 1.5
26 | B10 | 2 | 2 | 2
27 | B11 | 14.3 | 14.3 | 5.8
28 | B12 | 9.4 | 9.4 | 6.3
29 | B13 | 1.9 | 1.9 | 1.4

target: human NKp30 (human) (UniProt O14931); assay: BLI, immunoligand on anti-hFc tip

Row | Binder | Kd [nM] | koff [s⁻¹] | kon [M⁻¹ s⁻¹]
30 | B1 | 34.5 | 0.0322 | 933000
31 | B2 | 409 | 0.168 | 412000
32 | B14 | 253 | 0.148 | 585000
33 | B3 | 14.9 | 0.0104 | 702000
34 | B4 | 187 | 0.111 | 597000
35 | B5 | 83 | 0.0556 | 669000
36 | B6 | 9.06 | 0.0136 | 1.5e+06
37 | B15 | 147 | 0.122 | 830000
38 | B16 | 11.7 | 0.0122 | 1.04e+06
39 | B17 | 285 | 0.376 | 1.32e+06
40 | B7 | 65.2 | 0.0486 | 745000
41 | B8 | 12.4 | 0.0101 | 817000
42 | B9 | 234 | 0.115 | 491000
43 | B10 | 205 | 0.0842 | 410000
44 | B18 | 23.9 | 0.0149 | 621000
45 | B19 | 61.6 | 0.0642 | 1.04e+06
46 | B20 | 291 | 0.162 | 556000
47 | B11 | 28.7 | 0.0289 | 1.01e+06
48 | B12 | 43.6 | 0.0269 | 616000
49 | B13 | 217 | 0.124 | 570000
50 | B21 | 188 | 0.0766 | 409000
